Test results as given in paper PMC5911420 (DNA repair, 2018).
Where two headings read alike, the source gives them in different places.

Assays:
Test in all cases: SEC-MALS
SEC-MALS = biological target: the molecule itself
[1] = biological target: T1, full-length NEIL1 DNA glycosylase, His-tagged (human, UniProt Q96FI4 1-390)
[2] = biological target: T1, full-length NEIL1 DNA glycosylase, …; remark: listed apart in the source

T1 sequence (Q96FI4 whole entry): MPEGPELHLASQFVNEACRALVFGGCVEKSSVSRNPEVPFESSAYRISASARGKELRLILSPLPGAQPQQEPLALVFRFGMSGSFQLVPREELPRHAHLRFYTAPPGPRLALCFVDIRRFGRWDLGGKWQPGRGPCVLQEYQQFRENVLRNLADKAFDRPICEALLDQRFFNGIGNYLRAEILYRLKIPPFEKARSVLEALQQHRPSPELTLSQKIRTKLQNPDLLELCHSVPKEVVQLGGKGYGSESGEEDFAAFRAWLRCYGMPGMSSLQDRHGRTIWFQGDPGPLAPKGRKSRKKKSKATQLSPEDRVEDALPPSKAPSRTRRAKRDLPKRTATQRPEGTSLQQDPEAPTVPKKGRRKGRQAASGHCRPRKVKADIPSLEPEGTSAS

stoichiometry N [1]: 1 mtSSB monomer per NEIL1
stoichiometry N [2]: 1 mtSSB tetramer per NEIL1 (with one DNA)
B1: human mitochondrial single-stranded DNA binding protein, purified recombinant (natural protein, UniProt Q04837 17-148, looked up)
chain: ESETTTSLVLERSLNRVHLLGRVGQDPVLRQVEGKNPVTIFSLATNEMWRSGDSEVYQLGDVSQKTTWHRISVFRPGLRDVAYQYVKKGSRIYLEGKIDYGEYMDKNNVRRQATTIIADNIIFLSDQTKEKE
stoichiometry N (SEC-MALS): 4
